Among the data in paper PMC4834570 are Kd values, retold here.

The target of the assay is A1-tagged Gal-1 (galectin-1) (UniProt P09382). In words: FRET or BRET; in vitro sensitized acceptor emission FRET titration; 100 nM ATTO-488-labelled Gal-1 titrated with 100 nM to 1000 nM DY-547-labelled C-Raf-RBD; 25 mM HEPES, 100 mM NaCl, 3 mM MgCl2, 3 mM DTT, pH 7.2. In general terms: BRET reads energy transfer from a luciferase to a nearby fluorophore.

The pKd is the negative decadic logarithm of the Kd, by convention in mol/L.

pKd: −log10 of the molar value.

“A1-tagged C-Raf-RBD (from UniProt P04049 56-131) (domain or fragment)”: the pKd is 6.97.
